Measurements from PMC13370696, “Anemia‐associated mutations disrupt the CDIN1‐Codanin1 complex in inherited congenital dyserythropoietic anemia I (CDA‐I) disease” (The Febs Journal, 2026).

B1: Codanin1 C-terminus (amino acids 1005-1227), labeled with Alexa Fluor 488 (domain or fragment, human, UniProt Q8IWY9 1005-1227, looked up)
chain: AARGERRGCSRACEHHAPLPSHLISEIKDVLSLAVGPRDPDEGVSPEHLEQLLGQLGQTLRCRQFLCPPAEQHLAKCSVELASLLVADQIPILGPPAQYRLERGQARRLLHMLLSLWKEDFQGPVPLQLLLSPRNVGLLADTRPREWDLLLFLLRELVEKGLMGRMEIEACLGSLHQAQWPGDFAEELATLSNLFLAEPHLPEPQLRACELVQPNRGTVLAQS
modifications: Alexa Fluor 488 covalently attached (carboxylic acid, 2,3,5,6-tetrafluorophenyl ester); site not stated; degree of labeling over 90%
notes: Codanin-1 (CDAN1), human, amino acids 1005-1227, codon-optimized for bacterial expression; Same protein as m2, with the dye; also called fluorescently labeled Codanin1_(Cterm); Codanin1_(Cterm) Alexa Fluor 488
B2: Codanin1 C-terminus (amino acids 1005-1227), bacterial (domain or fragment, human, UniProt Q8IWY9 1005-1227, looked up)
chain: B1 chain
notes: Codanin-1 (CDAN1), human, amino acids 1005-1227, codon-optimized for bacterial expression; Eluted from the Im7 column by cleavage with His-tagged Ulp1; plasmid pl21 (TriAltus); Anticipated mass is printed as 25 kDa; also called C-terminal part of Codanin1
B3: CDAN1-interacting nuclease 1 (CDIN1), full length, bacterial (natural protein, human, UniProt Q9Y2V0 1-281, looked up)
chain: MILTKAQYDEIAQCLVSVPPTRQSLRKLKQRFPSQSQATLLSIFSQEYQKHIKRTHAKHHTSEAIESYYQRYLNGVVKNGAAPVLLDLANEVDYAPSLMARLILERFLQEHEETPPSKSIINSMLRDPSQIPDGVLANQVYQCIVNDCCYGPLVDCIKHAIGHEHEVLLRDLLLEKNLSFLDEDQLRAKGYDKTPDFILQVPVAVEGHIIHWIESKASFGDECSHHAYLHDQFWSYWNRFGPGLVIYWYGFIQELDCNRERGILLKACFPTNIVTLCHSIA
notes: CDIN1 (C15orf41), human, full length, 281 amino acids; Eluted from the Im7 column by cleavage with His-tagged Ulp1; plasmid pl21 (TriAltus); The anticipated homodimer mass is printed as 67 kDa; Alone in solution it is mainly a homodimer; also called C15orf41

What was measured:
[1] = target: B3; experiment: MST; 75 nM Alexa Fluor 488-labeled Codanin1_(Cterm) with 0-5 uM CDIN1; 20 mM Tris/HCl, 150 mM NaCl, 5% glycerol, pH 8.0; 25 °C; Hill equation fit; apparent KD; conditions: both partners purified
[2] = target: B3; experiment: ITC; Codanin1_(Cterm) (110 uM) titrated into CDIN1 (11 uM) in the cell; 15 °C; 20 mM Tris/HCl, 150 mM NaCl, 5% glycerol, pH 8.0; one-site binding model; conditions: both partners purified
[3] = target: B2; experiment: AUC; sedimentation velocity, 20 °C, 50 000 rpm; 24 uM CDIN1, 24 uM Codanin1_(Cterm), or 1:1 complex at 12 uM each; 20 mM Tris/HCl, 150 mM NaCl, pH 8.0; conditions: both partners purified
[4] = target: B1; experiment: native gel or EMSA; 1.25 uM Alexa Fluor 488-labeled Codanin1_(Cterm) with 0-20 uM CDIN1 (twofold dilutions); 20 mM Tris/HCl, 150 mM NaCl, 5% glycerol, pH 8.0; 15 min at room temperature; native 10% PAGE, 0.5x TBE, 4 °C; conditions: both partners purified
[5] = target: the molecule itself; experiment: SEC-MALS; CDIN1 (2 mg/mL), Codanin1_(Cterm) (2 mg/mL) or the 1:1 complex; Zenix SEC 300 column; 20 mM Tris/HCl, 150 mM NaCl, pH 8.0

Binder: B1
Kd [1]: 53 ± 8 nM

Binder: B2
Kd [2]: 20 ± 4 nM

Binder: B3
stoichiometry N [3]: 1 CDIN1:Codanin1_(Cterm) | stoichiometry N [4]: 1 CDIN1:Codanin1_(Cterm) | stoichiometry N [5]: 2
